Measured values reported in US20240092941A1 (FRED HUTCHINSON CANCER CENTER, published 2024).
Blank lines part the entries; values can stand above or below the binder they belong to.

Target: T1, soluble ROR1 ectodomain (UniProt Q01973 30-406, limits assumed)
T1 construct: extracellular domain
Assay: method not stated in the legend of FIG. 1

T1 sequence (Q01973 30-406 limits assumed): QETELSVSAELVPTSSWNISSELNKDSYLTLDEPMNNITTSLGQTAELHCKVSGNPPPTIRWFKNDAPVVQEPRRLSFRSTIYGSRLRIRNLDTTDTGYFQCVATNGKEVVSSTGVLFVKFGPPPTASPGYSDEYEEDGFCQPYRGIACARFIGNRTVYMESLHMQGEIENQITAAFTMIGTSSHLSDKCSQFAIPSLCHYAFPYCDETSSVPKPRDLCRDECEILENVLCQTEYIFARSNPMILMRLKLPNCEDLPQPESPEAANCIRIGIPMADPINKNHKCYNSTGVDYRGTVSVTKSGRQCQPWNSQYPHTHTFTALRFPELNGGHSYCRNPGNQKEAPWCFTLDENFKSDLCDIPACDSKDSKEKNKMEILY

- Kd: 2 nM
B1: Nb11 WT (VHH)
VHH: QVKLVQSGGGLVQAGGSLRLSCAASGSIFSSASMGWYRQAPGKPREQVASITRDGNTYYEDDVKGRFTISRDNARSTGYLQMNSLTPEDTGVYYCNVYQLGFYDKWGQGTQVIVSS

- Kd: 2 nM
B2: Nb14 WT (VHH)
VHH: QVKLVQSGGGLVQTGGSLRLSCAASEITFDMYSMGWYREAPGKARDAVASITNRGNTYYADSVKGRFTISRDNAKKTMYLQMNSLKPEDTAVYYCNVYRTGFSDYWGQGTQVTVSS
